# Data taken from US20230272056A1 (Merck Sharp & Dohme, published 2023).
# Where a chain is given by its changes, count along the chain named. Names and notes keep the numbering of the source.
# B1: VH W33Y/VL R53Y (91BJM) (Fab, V domains shown)
# VH: EVQLVQSGAEVKKPGASVKVSCKASGYTFTSYYMHWVRQAPGQGLEWMGRIDPQSGGIKYAQKFQGRATLTVDTSTSTAYMELSRLRSDDTAVYYCARWDYGGYFDVWGQGTLVTVSS
# VL: DIQMTQSPSSLSASVGDRVTITCRASQDITNYLNWYQQKPGKAVKLLIYYTSYLHSGVPSRFSGSGSGTDYTLTISSLQPEDFATYFCQQGDTLPWTFGQGTKLEIKR
# notes: also called VH33/VL53
# B2: VH W33Y/VL T30Y (90BJM) (Fab, V domains shown)
# VH: B1 VH
# VL: B1 VL with T30Y, Y53R
# notes: also called VH33/VL30
# B3: 68BLH (Fab, V domains shown)
# VH: B1 VH with Y33D, I58E, W99Y
# VL: DIQMTQSPSSLSASVGDRVTITCRASQDIYNYLNWYQQKPGKAVKLLIYYTSRLETGVPSRFSGSGSGTDYTLTISSLQPEDFATYFCQQGDTLPWTFGQGTKLEIK
# notes: also called 20BLM Fab
# B4: 64BLH (Fab, V domains shown)
# VH: B1 VH with Y33D
# VL: B3 VL with R53V
# notes: also called 16BLM Fab
# B5: 63BLH (Fab, V domains shown)
# VH: B1 VH with Y33D
# VL: B3 VL
# notes: also called 15BLM Fab; 015BLM Fab
# B6: 67BLH (Fab, V domains shown)
# VH: B1 VH with Y33D, W99Y, Y101H
# VL: B3 VL with R53Y
# notes: also called 19BLM Fab
# B7: 59BLH (Fab, V domains shown)
# VH: B1 VH with Y33D, K59R
# VL: B3 VL with R53V
# notes: also called 11BLM Fab
# B8: 54BLH (Fab, V domains shown)
# VH: B1 VH with Y33D, K59R, Y104Q
# VL: B3 VL with R53I
# notes: also called 06BLM Fab
# B9: 55BLH (Fab, V domains shown)
# VH: B1 VH with Y33D, K59R
# VL: B3 VL with N31S, R53N
# notes: also called 07BLM Fab
# B10: 60BLH (Fab, V domains shown)
# VH: B1 VH with Y33D, I58V
# VL: B3 VL with R53V, T93E
# notes: also called 12BLM Fab
# B11: 62BLH (Fab, V domains shown)
# VH: B1 VH with Y33D, M34T
# VL: B3 VL with R53Y
# notes: also called 14BLM Fab
# Target: T1, human LAP-TGFB2 Fc fusion (human)
# T1 construct: also called human LAP-TGFβ2; LAP-TGFβ isoform 2
# T1 sequence (chain, as listed by the source limits assumed): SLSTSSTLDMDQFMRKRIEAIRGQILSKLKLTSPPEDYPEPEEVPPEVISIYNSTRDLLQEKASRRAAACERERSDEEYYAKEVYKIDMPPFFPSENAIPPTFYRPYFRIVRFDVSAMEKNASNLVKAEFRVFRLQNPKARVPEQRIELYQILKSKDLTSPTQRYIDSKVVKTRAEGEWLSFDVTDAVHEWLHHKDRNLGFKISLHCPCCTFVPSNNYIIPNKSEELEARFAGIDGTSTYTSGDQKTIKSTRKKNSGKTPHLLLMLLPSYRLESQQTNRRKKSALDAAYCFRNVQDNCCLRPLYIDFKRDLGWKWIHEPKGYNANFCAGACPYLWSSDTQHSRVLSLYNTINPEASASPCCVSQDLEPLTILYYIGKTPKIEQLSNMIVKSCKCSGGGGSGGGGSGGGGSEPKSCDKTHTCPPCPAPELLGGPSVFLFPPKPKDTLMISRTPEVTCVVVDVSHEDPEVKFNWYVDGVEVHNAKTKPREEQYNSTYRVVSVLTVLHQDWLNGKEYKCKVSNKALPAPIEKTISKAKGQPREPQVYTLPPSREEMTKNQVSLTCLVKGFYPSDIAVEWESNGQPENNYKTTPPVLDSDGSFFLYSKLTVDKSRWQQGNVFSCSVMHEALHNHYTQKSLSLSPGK
# Test: SPR
# Method: (§1) A Series S CM4 sensor chip (GE Healthcare, catalog BR100534) was immobilized with an anti-human Fc capture antibody following the kit protocol (GE Healthcare, catalog BR100839) on a Biacore T200 instrument with 1× HBS-EP+ (Teknova, catalog H8022). […] Binding specificity between human LAP-TGFβ isoforms 2 and 3 and the tyrosine scanning double mutants were performed in 1× HEPES-buffered saline with EDTA and surfactant (HBS)-EP)+with 0.1 mg/mL BSA at 25° C. […] The binding data were double referenced by subtraction of signal from a reference (capture surface only) flow cell and the negative control 0 nM Fab injection. Binding rate constants were determined by fitting the data with a 1:1 binding model (GE Healthcare Biacore T200 Evaluation software 3.0).
row,binding result,Binder
1,no binding (tested: 1000 nM Fab),B1
2,no binding (tested: 1000 nM Fab),B2

# Target: T2, human LAP-TGFB3 Fc fusion (human)
# T2 construct: also called human LAP-TGFβ3; LAP-TGFβ isoform 3
# T2 sequence (chain, as listed by the source limits assumed): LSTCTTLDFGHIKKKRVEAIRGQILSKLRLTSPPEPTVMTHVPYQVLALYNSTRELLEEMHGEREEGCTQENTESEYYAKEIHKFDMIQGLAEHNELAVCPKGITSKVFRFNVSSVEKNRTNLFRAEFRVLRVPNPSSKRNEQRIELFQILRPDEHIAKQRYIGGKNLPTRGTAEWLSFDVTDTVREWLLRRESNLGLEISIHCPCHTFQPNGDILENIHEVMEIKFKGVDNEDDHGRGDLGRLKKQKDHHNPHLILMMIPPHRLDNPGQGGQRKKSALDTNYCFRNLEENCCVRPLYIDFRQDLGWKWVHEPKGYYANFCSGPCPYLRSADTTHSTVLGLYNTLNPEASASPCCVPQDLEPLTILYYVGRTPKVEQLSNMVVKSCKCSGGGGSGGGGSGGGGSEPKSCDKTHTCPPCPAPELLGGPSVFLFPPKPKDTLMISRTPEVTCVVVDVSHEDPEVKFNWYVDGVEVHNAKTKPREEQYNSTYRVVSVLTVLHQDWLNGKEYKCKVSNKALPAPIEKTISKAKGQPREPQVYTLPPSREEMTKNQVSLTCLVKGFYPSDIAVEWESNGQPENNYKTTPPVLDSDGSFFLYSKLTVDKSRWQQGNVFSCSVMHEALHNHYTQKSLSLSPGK
# Test: SPR
# Method: as §1
row,binding result,Binder
1,no binding (tested: 1000 nM Fab),B1
2,no binding (tested: 1000 nM Fab),B2

# Target: T3, human LAP-TGFB1 Fc fusion (human)
# T3 construct: also called human LAP-TGFβ1-Fc; human LAP-TGFβ-Fc isoform 1
# T3 sequence (chain, as listed by the source limits assumed): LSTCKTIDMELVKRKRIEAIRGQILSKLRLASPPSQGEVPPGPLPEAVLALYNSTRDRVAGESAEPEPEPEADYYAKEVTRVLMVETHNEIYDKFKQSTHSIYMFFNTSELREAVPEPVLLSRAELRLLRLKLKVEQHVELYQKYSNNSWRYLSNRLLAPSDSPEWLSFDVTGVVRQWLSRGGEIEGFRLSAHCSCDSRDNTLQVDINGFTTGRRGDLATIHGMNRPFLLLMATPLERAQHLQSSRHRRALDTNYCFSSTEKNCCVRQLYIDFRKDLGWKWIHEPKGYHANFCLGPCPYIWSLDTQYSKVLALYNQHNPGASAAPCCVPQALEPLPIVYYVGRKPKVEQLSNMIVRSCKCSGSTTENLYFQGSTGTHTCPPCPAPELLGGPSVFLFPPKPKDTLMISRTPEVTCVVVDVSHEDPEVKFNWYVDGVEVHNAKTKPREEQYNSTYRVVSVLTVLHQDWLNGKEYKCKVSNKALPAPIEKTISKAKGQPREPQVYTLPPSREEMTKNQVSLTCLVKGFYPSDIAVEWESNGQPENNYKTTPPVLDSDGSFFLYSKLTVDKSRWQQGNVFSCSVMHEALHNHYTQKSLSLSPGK
# Test: SPR
row,Fold change in KD from pH 7.4 to pH 6,Binder
1,1.2 fold,B3
2,0.3 fold,B4
3,1.2 fold,B5
4,1.7 fold,B6
5,0.7 fold,B7
6,1.5 fold,B8
7,1.8 fold,B9
8,2.8 fold,B10
9,1.2 fold,B11

# Target: T1, human LAP-TGFB2 Fc fusion
# Test: SPR pH 7.4
row,binding result,Binder
1,no binding (tested: 1000 nM Fab),B3
2,no binding (tested: 1000 nM Fab),B4
3,no binding (tested: 1000 nM Fab),B5
4,no binding (tested: 1000 nM Fab),B6
5,no binding (tested: 1000 nM Fab),B7
6,no binding (tested: 1000 nM Fab),B8
7,no binding (tested: 1000 nM Fab),B9
8,no binding (tested: 1000 nM Fab),B10
9,no binding (tested: 1000 nM Fab),B11

# Target: T2, human LAP-TGFB3 Fc fusion
# Test: SPR pH 7.4
row,binding result,Binder
1,no binding (tested: 1000 nM Fab),B3
2,no binding (tested: 1000 nM Fab),B4
3,no binding (tested: 1000 nM Fab),B5
4,no binding (tested: 1000 nM Fab),B6
5,no binding (tested: 1000 nM Fab),B7
6,no binding (tested: 1000 nM Fab),B8
7,no binding (tested: 1000 nM Fab),B9
8,no binding (tested: 1000 nM Fab),B10
9,no binding (tested: 1000 nM Fab),B11

# Target: T3, human LAP-TGFB1 Fc fusion
# Test: SPR, antigen-Fc captured, Fab analyte
Fold improvement in KD,Kd,koff,kon,Binder
7 fold,11.8 nM,0.0154 s⁻¹,910000 M⁻¹ s⁻¹,B1
20 fold,4 nM,0.0075 s⁻¹,1.89e+06 M⁻¹ s⁻¹,B2

# Target: T3, human LAP-TGFB1 Fc fusion
# Test: SPR pH 7.4, antigen captured on Fab 54BLH
# From the text: (§2) A Series S C1 sensor chip (Cytiva, catalog BR100535) was immobilized with low densities of high affinity Fab 54BLH on a Biacore T200 instrument with 1×HBS-EP+(Teknova, catalog H8022). This surface served as a monovalent capture surface for a low-density layer of heterodimer human LAP-TGFβ1 complex leaving the second binding site exposed for monovalent kinetic binding analysis with both mAbs and Fabs. Immobilized flow cell 1 served as the reference and flow cells 2, 3 and 4 were used to evaluate the binding interaction between human LAP-TGFβ1 and yeast display mutant mAbs and Fabs.
# (§3) Approximately 15-25 RU of human LAP-TGFβ1-Fc was captured to the Fab capture surface followed by injection of 1:3 serially diluted Fabs and mAbs from 6 nM to 0.07 nM (Fabs: 54BLH, 55BLH, 60BLH, 63BLH, 64BLH-mAbs: 69BLH, 70BLH) and 1:3 serially diluted Fab and mAbs from 60 nM to 0.74 nM (Fabs: 59BLH, 66BLH, 67BLH—mAbs: 74BLH, 75BLH, 78BLH, 79BLH, 81BLH, 82BLH) including 0 nM. The binding data was double referenced by subtraction of signal from a reference flow cell and the 0 nM injections for evaluation of Fabs and mAbs respectively. Binding rate constants were calculated/determined by fitting the data with a 1:1 binding model (Cytiva Biacore T200 Evaluation software 3.0).
Kd,koff,kon,Binder
0.062 nM,0.000939 s⁻¹,1.53e+07 M⁻¹ s⁻¹,B4
0.355 nM,0.00341 s⁻¹,9.61e+06 M⁻¹ s⁻¹,B5
2.36 nM,0.0155 s⁻¹,6.69e+06 M⁻¹ s⁻¹,B6
0.044 nM,0.000575 s⁻¹,1.31e+07 M⁻¹ s⁻¹,B7
0.00477 nM,3.34e-05 s⁻¹,7.03e+06 M⁻¹ s⁻¹,B8
0.125 nM,0.00109 s⁻¹,8.75e+06 M⁻¹ s⁻¹,B9
0.036 nM,0.000348 s⁻¹,9.65e+06 M⁻¹ s⁻¹,B10

# Target: T3, human LAP-TGFB1 Fc fusion
# Test: SPR pH 6.0, antigen captured on Fab 54BLH
# From the text: as §2, §3
Kd,koff,kon,Binder
0.182 nM,0.00194 s⁻¹,1.07e+07 M⁻¹ s⁻¹,B4
1.06 nM,0.00796 s⁻¹,7.51e+06 M⁻¹ s⁻¹,B5
18.8 nM,0.046 s⁻¹,2.44e+06 M⁻¹ s⁻¹,B6
0.179 nM,0.00126 s⁻¹,7.08e+06 M⁻¹ s⁻¹,B7
0.0217 nM,0.000101 s⁻¹,4.65e+06 M⁻¹ s⁻¹,B8
0.335 nM,0.00248 s⁻¹,7.39e+06 M⁻¹ s⁻¹,B9
0.296 nM,0.00167 s⁻¹,5.65e+06 M⁻¹ s⁻¹,B10

# Target: T3, human LAP-TGFB1 Fc fusion
# Test: SPR pH 7.4, antigen-Fc captured, Fab analyte
Fold improvement in KD,Kd,koff,kon,Binder
134 fold,0.438 nM,0.00331 s⁻¹,7.57e+06 M⁻¹ s⁻¹,B3
760 fold,0.077 nM,0.0005 s⁻¹,6.51e+06 M⁻¹ s⁻¹,B4
197 fold,0.297 nM,0.00198 s⁻¹,6.79e+06 M⁻¹ s⁻¹,B5
61 fold,0.961 nM,0.00476 s⁻¹,4.95e+06 M⁻¹ s⁻¹,B6
887 fold,0.066 nM,0.00047 s⁻¹,7.1e+06 M⁻¹ s⁻¹,B7
14600 fold,0.004 nM,2.07e-05 s⁻¹,4.96e+06 M⁻¹ s⁻¹,B8
992 fold,0.059 nM,0.000528 s⁻¹,9.08e+06 M⁻¹ s⁻¹,B9
2440 fold,0.024 nM,0.000186 s⁻¹,7.91e+06 M⁻¹ s⁻¹,B10
222 fold,0.246 nM,0.00124 s⁻¹,4.69e+06 M⁻¹ s⁻¹,B11

# Target: T3, human LAP-TGFB1 Fc fusion
# Test: SPR pH 6.0, antigen-Fc captured, Fab analyte
# Method: A Series S CM4 sensor chip (Cytiva, catalog BR100534) was immobilized with an anti-human Fc capture antibody following the kit protocol (Cytiva, catalog BR100839) on a Biacore T200 instrument with 1× HBS-EP+ (Teknova, catalog H8022). […] The binding data were double referenced by subtraction of signal from a reference (capture surface only) flow cell and the 0 nM Fab injection. Binding rate constants were determined by fitting the data with a 1:1 binding model (Cytiva Biacore T200 Evaluation software 3.0).
Kd,koff,kon,Binder
0.508 nM,0.00454 s⁻¹,8.94e+06 M⁻¹ s⁻¹,B3
0.024 nM,0.000843 s⁻¹,3.49e+07 M⁻¹ s⁻¹,B4
0.369 nM,0.00277 s⁻¹,7.51e+06 M⁻¹ s⁻¹,B5
1.59 nM,0.0122 s⁻¹,7.63e+06 M⁻¹ s⁻¹,B6
0.049 nM,0.000543 s⁻¹,1.11e+07 M⁻¹ s⁻¹,B7
0.006 nM,4.73e-05 s⁻¹,7.56e+06 M⁻¹ s⁻¹,B8
0.105 nM,0.000757 s⁻¹,7.17e+06 M⁻¹ s⁻¹,B9
0.067 nM,0.000481 s⁻¹,7.23e+06 M⁻¹ s⁻¹,B10
0.29 nM,0.00168 s⁻¹,5.8e+06 M⁻¹ s⁻¹,B11

# Target: T3, human LAP-TGFB1 Fc fusion
# Test: SPR pH 7.4, antigen-Fc captured, Fab analyte
# Remark: another data set of the same source
Kd,koff,kon,Binder
0.438 nM,0.00331 s⁻¹,7.57e+06 M⁻¹ s⁻¹,B3
0.077 nM,0.0005 s⁻¹,6.51e+06 M⁻¹ s⁻¹,B4
0.297 nM,0.00198 s⁻¹,6.79e+06 M⁻¹ s⁻¹,B5
0.961 nM,0.00476 s⁻¹,4.95e+06 M⁻¹ s⁻¹,B6
0.066 nM,0.00047 s⁻¹,7.1e+06 M⁻¹ s⁻¹,B7
0.004 nM,2.07e-05 s⁻¹,4.96e+06 M⁻¹ s⁻¹,B8
0.059 nM,0.000528 s⁻¹,9.08e+06 M⁻¹ s⁻¹,B9
0.024 nM,0.000186 s⁻¹,7.91e+06 M⁻¹ s⁻¹,B10
0.246 nM,0.00124 s⁻¹,4.69e+06 M⁻¹ s⁻¹,B11
